The record followed here is patent publication US20250154264A1 (GENOVAC ANTIBODY DISCOVERY, published 2025).

The target in assay [1] is T1, murine ALK1, N-terminally tagged, on transiently transfected cells (mouse, UniProt Q61288 23-502).
T1 construct: whole, on cells; also called mouse ALK1; murine orthologue; not shown: N-terminal tag used for the expression control
T1 sequence (looked up): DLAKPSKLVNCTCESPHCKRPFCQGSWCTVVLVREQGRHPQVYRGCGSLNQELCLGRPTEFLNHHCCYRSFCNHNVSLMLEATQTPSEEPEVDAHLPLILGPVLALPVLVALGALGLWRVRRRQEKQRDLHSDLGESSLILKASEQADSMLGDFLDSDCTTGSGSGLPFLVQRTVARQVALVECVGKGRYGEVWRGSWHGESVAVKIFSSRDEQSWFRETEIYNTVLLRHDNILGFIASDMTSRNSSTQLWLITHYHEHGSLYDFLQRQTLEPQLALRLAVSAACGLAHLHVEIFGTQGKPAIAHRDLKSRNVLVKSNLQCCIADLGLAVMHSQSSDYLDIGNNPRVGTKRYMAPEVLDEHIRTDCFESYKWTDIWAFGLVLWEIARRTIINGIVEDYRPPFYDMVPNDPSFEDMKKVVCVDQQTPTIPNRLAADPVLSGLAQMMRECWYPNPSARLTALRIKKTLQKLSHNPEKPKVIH
As to the kind of experiment: flow cytometry, hybridoma supernatant on transiently transfected cells, PE goat anti-rat secondary. How it is done:
(§1) Various isolated antibodies were assessed for the ability to bind ALK1 from mouse (murine), human, and cyno monkey. Flow cytometry was used to measure fluorescence intensity produced by fluorescent-labeled secondary antibodies detecting primary anti-ALK1 antibodies that bind to specific cell-associated ALK1 molecules. More precisely hybridoma supernatants containing primary antibodies were tested for binding to transiently transfected cells expressing ALK1 of human, cyno monkey and mouse by flow cytometry. The signals were generated by use of secondary, PE-labelled goat anti-rat antibodies. In addition to testing the supernatants on non-transfected cells, ALK1 of human, cyno monkey and mouse-transfected cells were incubated only with the secondary antibody (without supernatants) as a negative control.

Assay [2] deals with T2, human ALK1 (Activin A receptor like type 1), N-terminally tagged, on transiently transfected cells (human, UniProt P37023 22-503).
T2 construct: also called ALK1 of human; ACVRL1; not shown: N-terminal tag used for the expression control
Described as above. On the procedure:
as §1

Assay [3] addresses T3, human ALK5 on transiently transfected cells (human, UniProt P36897 34-503).
T3 construct: whole, on cells; also called ALK5 of human
T3 sequence (looked up): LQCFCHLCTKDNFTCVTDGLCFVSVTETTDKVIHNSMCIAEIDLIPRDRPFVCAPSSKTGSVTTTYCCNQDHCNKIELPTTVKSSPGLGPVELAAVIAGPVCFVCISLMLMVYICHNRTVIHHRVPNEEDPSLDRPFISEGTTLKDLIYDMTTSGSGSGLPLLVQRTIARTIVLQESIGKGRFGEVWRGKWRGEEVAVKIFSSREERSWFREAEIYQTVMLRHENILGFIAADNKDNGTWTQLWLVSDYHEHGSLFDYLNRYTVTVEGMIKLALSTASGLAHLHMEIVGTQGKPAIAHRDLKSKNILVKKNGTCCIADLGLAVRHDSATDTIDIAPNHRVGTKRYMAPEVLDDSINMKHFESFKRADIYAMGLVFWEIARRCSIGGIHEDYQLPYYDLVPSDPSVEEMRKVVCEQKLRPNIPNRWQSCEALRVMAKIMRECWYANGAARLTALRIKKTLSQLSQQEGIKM
As to the kind of experiment: flow cytometry, hybridoma supernatant on transiently transfected cells (Example 3). How it is done: as §1, with “Flow” for “Various isolated antibodies were assessed for the ability to bind ALK1 from mouse (murine), human, and cyno monkey. Flow”, “cell-associated ALK5” for “cell-associated ALK1”, “expressing ALK5” for “expressing ALK1”, “of human” for “of human, cyno monkey”, “cells, ALK5” for “cells, ALK1”

T2 sequence (P37023 22-503): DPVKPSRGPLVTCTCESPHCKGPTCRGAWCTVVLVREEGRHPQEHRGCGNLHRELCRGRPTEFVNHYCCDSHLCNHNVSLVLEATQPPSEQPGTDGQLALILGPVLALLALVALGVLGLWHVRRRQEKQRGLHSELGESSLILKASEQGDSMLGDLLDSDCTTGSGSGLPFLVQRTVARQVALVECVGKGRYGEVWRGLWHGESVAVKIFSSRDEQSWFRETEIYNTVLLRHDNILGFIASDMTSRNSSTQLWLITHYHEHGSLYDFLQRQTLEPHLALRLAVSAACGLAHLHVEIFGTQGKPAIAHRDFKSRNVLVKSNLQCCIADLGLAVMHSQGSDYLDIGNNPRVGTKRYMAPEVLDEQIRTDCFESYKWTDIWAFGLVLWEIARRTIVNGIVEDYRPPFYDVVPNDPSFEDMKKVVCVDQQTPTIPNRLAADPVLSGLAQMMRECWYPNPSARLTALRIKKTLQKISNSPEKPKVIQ

B1: BVO-A-9F7-A10 (antibody, V domains shown)
VH: QVQLQQWGAGLLKPSETLSLTCAVYGGSFSSSYWNWIRQPPGKGLEWIGEVNHSGSTNYNPSLKSRVTISLDTSKNQFSLKLSSVTAADTAVYYCARSPRSGRIVGAVFDYWGQGTLVTVSS
VL: SYVLTQPPSVSVAPGQTARITCGGNNIGPKSVHWYQQKPGQAPVLVVYDDSDRPSGIPERFSGSNSGNTATLTISRVEAGDEADYYCQVWDSSNDHVVFGGGTKLTVL
notes: Tested as OmniRat hybridoma supernatant and detected with goat anti-rat secondary antibody; also called BVO-A-9E7-A10
With B1, the binding result is recorded as “binds” in assay [1], “binds” in assay [2] and “no binding” in assay [3].

B2: BVO-B-1H7-E3 (antibody, V domains shown)
VH: QLQLQESGPGLVKPSETLSLTCTVSGGSISSRSYYWGWIRQPPGKGLEWIGNIYYSGSAFYNPSLKSRVTISVDTSKNQFSLKLSSVTAADTAVYYCARWDNWDVGAFDIWGQGTMVTVSS
VL: QSALTQPPSASGSPGQSVTISCTGTSSDVGGYNYVSWYQQHPGKAPKLMIYEVSKRPSGVPDRFSGSKSGNTASLTVSGLQAEDEADYYCTSFAGSNNWVFGGGTKLTVL
notes: Tested as OmniRat hybridoma supernatant and detected with goat anti-rat secondary antibody
For B2, the binding result is given as “binds” in assay [1], “binds” in assay [2] and “no binding” in assay [3].
